The results in this text go back to the domain aggregation screens of Martell et al. (2025).

A short description of this data set: soluble fraction after stress (log2 fold change); higher = more stays soluble; pooled small domains, quantitative proteomics. The note with it: stress: 50 degC. In short, it runs like this:
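Custom libraries of small protein domains were pooled and measured in a high-throughput format, with quantitative proteomics as the read-out. Each library was stressed at 50°C. The value is the log2 fold change in the amount of each protein that stays soluble after stress, used as a measure of aggregation propensity; higher values mean more of the protein stays soluble.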

Regarding “HMYDNTVTKYVNSLSVYVRKGPSTSDEIVTSLIKDTDVTVVGENGEWYKIKYKEFEGYIYKNLLSDNKT”, the “soluble fraction (log2)” value was -0.254. As for “HMELSAEGWVDGTGVRMRASASTDSEVVRVTEDGESLDITGVSGTWYRVTAGGVSGYIRSDYVSLEEP”, the “soluble fraction (log2)” value was -0.287. As to “HMIGIGSDVPNKLKPAIYSFGLVAVGEKSVIPDGVQIGKNTAVSGVTSKEDYPDGVLESGETLIKA”, the “soluble fraction (log2)” value came out at 0.0103.

Consider “HMDNNFIQSLYPIAIGISKNQLDPWDLINGWVEYYLKNKEKYINHPNLKAVAVLKMKGLLIDHFRKS”, for which the “soluble fraction (log2)” value was -3.57. Consider “HMNKETYIDALERKLWDRLDPDQLRDIISYYKDYFAMEAAKGISEEETIRKLGDPALLAKSILAAE”, for which the “soluble fraction (log2)” value was -0.335.

With “HMLTIEEYLTQLKKLMKDRDAATVRDALSDAEEHLRNAMAGEDPSRLDGIIEEYGSPEEIAAAYKIMEEHT”, the “soluble fraction (log2)” value was found to be 0.0389. For “HMREYRITAEEGHPRIDVFLAGRPEIGLSRSRIQALIDEGQVTLNGAMPKARQAVNPGDVIVVRVPDPE”, the “soluble fraction (log2)” value is 0.263. Take “HMGLAGVQSDVKVSFDGDLLVVTSDIARSFNLFAVDGRLIRSVNLIAGRNEIRGLERGFYLAEKQKIFV”: the “soluble fraction (log2)” value was -2.07. With “HMRIWTISDLYKNVEDKKVSLAVFSEDNDSNKVNVLDINGEEHSVNLLKADLPTLVDLFRKNDVRFAVRSN” the figure was 0.12; with “HMNALREVNTSILNVRSGAGTNYSKIGSLTQATRVSVISESNGWSKINYNGKVGYVSSQYLS”, -0.502. As for “HMKEPIYQTILSALILELNTNHFRKNDPFYSESELRKKYQVSSTTVVRVLNMLADQGYIYRIQGKGSFVSK”, the figure is -2.37.

“HMDYKSTLQELVQTVKKSVTYEVIDEEGPSHNKTFTSIVKIDGIVMGKGTAGSKKASEQEAARDALSKR”: the “soluble fraction (log2)” value is 0.271. As for “HMIDIDNLEKAAILLLSMGTEAAAKVMQKLSRDEVQRLISKMASLSGVSSIEAKWTLQQFFNQYREQSG”, the figure is -0.638; as for “HMSYKFDSLAIILNKLDGKETVNVSSLSDELEVSARTVHRYIGTLQVAGFPIEYDKTKNSYIFSEGYTL”, -0.874; as for “HMVKNVVIPDVSNKAPVDASNQLTDLGFEVVTEYKYIASDTIEEGKVVKTSPEIGSKRKYGQKITLYISSG”, -0.56. For the sequence “HMSFGKKLRSLRQEKKLSQVELSKKLNVTSQALSQYELGKRIPDAEMIIRIADFFDVSVDYLLDRT”, the “soluble fraction (log2)” value amounted to 0.215. Take “HMKIPYGELIKLLNAAAPKLQDAQGWMDMEAAGQFIGSRWSYLDYGFKDWPDSFKTVHGLEIQGQRMRLA”: the “soluble fraction (log2)” value was -0.452. As for “HMENMSFGTKLYTWLYGKLVGSDEIGNKYYTNINDPSDLNAKRWVIFNGEIEASKIPPHWHAWLHKSIDK”, the figure is -0.646; as for “HMQENFYMILESEERRVLDVLVADQPESVATFLKLVSPFPNYKIILEHINEKALDFYEETVI”, -0.303; as for “HMGDEPGAGYKWREDVLLRVMSEHGIDESARDDFVRHAVKFDDDDNLYLKKAEIIAAAEAWESSS”, 0.17.

“HMATYETEVISGVNLRSAPNTSASVYRLLSKGEDIHVIQKVNDYWLKVQTKDGKIGYISASSKYTNYIA”: the “soluble fraction (log2)” value is -0.29. For “HMNTNDFTIGTRVRTTKKGNGSSDGTSNTARSGIEGTITRIIPEAKYPYLVSTTVPMGWYKKDALEK”, the “soluble fraction (log2)” value is 0.0875. As to “HMIKITLPDGSVKEYKKGITPAEVAQSISEGLARNVISASYNGKTIETVTPLTTDGSLVLYTWDSPEGK”, the “soluble fraction (log2)” value came out at 0.193.

As to “HMSSLSGVRRTLLDSLGMPPDASDEELADRREELRGSLDTAPQARRKWIEQQLARIDAITALDASG”, the “soluble fraction (log2)” value was -0.035.

For the sequence “HMDPPISNDARNAINAKLMKFSELHPNEMKKLVEAYKKEFKVSKISPITLARQGEFLSHAISKIDDT”, the “soluble fraction (log2)” value is 0.0248. Turning to “HMTTETGTVKWFNEGKGFGFIAPDGGGKDLFAHFKEIQGSGFKTLTENQRVQFEVTQGQKGPQASNIRTL”, the “soluble fraction (log2)” value turned out to be 0.243. Regarding “HMSSVEVWINGKSSGLTSDNRAQILQQLPAESIERIEVIDNPSAKFSAEGSAGIINIVLKKD”, the “soluble fraction (log2)” value was determined as 0.157. As for “HMIINFDAIRLTTELNKYNRHKAIPNSFFDGTFTILDVRDLYDSLSPKVQKIADTLIEQYNVDVKQ”, the figure is -1.85; as for “HMPTLLGYKHILSAWNPDTNTVFRTSYGYDGEYGSREEAMQALIKMIQEGGKATPRGIEESEVPIY”, -0.126; as for “HMQYTQKTMYINDSYVNLRKSASTSSDIIMVVELNTKLTVIGEDGDWYKVKTSSGNAYVLKTLLSNEKKET”, -0.108. For the sequence “HMGTTMLEVPNFVGEVFKEIDPEKYPNLRLVDSDYTYSNEYEAGKVISQDPVARTQVAEGSTVKLVIS”, the “soluble fraction (log2)” value came out at 0.133.

With “HMSMFAQQLKDLRKKIPGLTQTDMAKKLGIAKTTYASYEQGKRTPDIETQNKIADFFNVSLDYLHG”, the “soluble fraction (log2)” value was -0.0838. Take “HMQVEMVLSQEAHEWLLQRGFIPEYGAREMDRVIAAHLKPLLMREILFGTLKAGGKVRVQVENGALKLQP”: the “soluble fraction (log2)” value was -1.44. As for “HMQVTEVDYGTFMKMVEEKNVGEVEVGNSMIVFTDKDGKAIYKTGAMNDPNLTERLYNAGASFTKE”, the “soluble fraction (log2)” value stood at 0.0396. Regarding “HMSDESALLELVKQIIADNPKAVEEIRAGKEKAMGFLIGQAMKASRGSANPQIISRLVREQLG”, the “soluble fraction (log2)” value turned out to be 0.128. Regarding “HMQIVHKHLQLQPDQGALRAALYSHKAVVAEQVNEQGAINLEIKLAESDFLRLLKSSGLKLQDLVSLS”, the “soluble fraction (log2)” value is -0.205. As for “HMGETAFRYALPLDQGEALKRSHVIRQSISPDDALATRVTVLEDVLDQTLRQPVQAGEVLLEDHFTR”, the “soluble fraction (log2)” value is -0.00712. Take “HMENIDVGQDYKVTMNTIQNLMKTGLVTGTQYKELLREMGVHSGMGAITAQQHQIALDFLNKTMDSA”: the “soluble fraction (log2)” value is 0.285. For “HMEKTEQMQVILDYIARYGEINNEKVQEILGVKRTRAYTILKQMVENGFVTTNGRGEEKKYYSIR”, the “soluble fraction (log2)” value was -0.336. Regarding “HMGLQRLTVSPEDAGVRIDKYLAEQLPDITRSYLQKLLKDGSVQMNGKPVKASTKTAVGAVIALTIPEP”, the “soluble fraction (log2)” value worked out at 0.0689. Take “HMSVTDDQLRVFTNKSGTKIKAKIVEVSDDKVKLIRDDNKKFIVPINSLSEEDQDYLRDWVSNEAVEP”: the “soluble fraction (log2)” value came out at 0.0333. In the case of “HMAGWIPVEERLPDDLTNPITRDAYVYPVTVDLGDVTDIRYYSFWRGHWYNQGPETMDDLVIAWMLLPEPY”, the “soluble fraction (log2)” value was -0.0981. With “HMTVDAVALGRRVRHLRKQAGLTLDQLAERTGVSGSHLSLVENARREPRLSLVQRIAEVLGVPVEDL” the figure was -1.17; with “HMHEAILNQIRNEELMLYIGELSDAQQDVILLKYFHQMTFKEIAESFSIPISTVKTRHTAALKKLSTLWK”, -0.16; with “HMVSINETAFIQIKNSSATEIKEKITALKLDELKNVTITADIRTNKLIVVGPKATINKIQELVIELDTES”, 0.281. Turning to “HMVISAKRMQDRRDSILDAAREAFARAGFEGTSIADIARRAGVSDGLVYRYFASKRDLLNAVLTA”, the “soluble fraction (log2)” value is -0.83.

With “HMNGIFEYSDAKKVPSLVEIENAYRRARVNGAEKFAVIINGEYFGYNPQKRGIYKLNDGEYQIL”, the “soluble fraction (log2)” value was -0.0706. With “HMNPNEVQIPDLVNKTEDEAEQILKDLKLKLVVKSEEYNENIEKGKIISQDPPYQENYTIKEHSEISIVIS”, the “soluble fraction (log2)” value worked out at 0.42. With “HMQTMTDDQVMQYVISQQEKGATQQDIVSKLLQKGVTVDQMRRIRKKYEAQQSQPGALDLTGSS” the figure was 0.209; with “HMRLPNHYGSVVKLSGKRRRPFMVRGGVYGYDDRGYPQYVIVGYTETREQGLTMLAEYNRNP”, -3.22.
